According to patent US10428149 (dated 2019):

B1: scFvhu225-EHD2-scTRAIL3-FLVGGGPQRVA (antibody)
chain: DYKDDDDKGGGGSGTEVQLVESGGGLVQPGGSLRLSCAASGFSLTNYGVHWVRQAPGKGLEWLGVIWSGGNTDYNTPFTSRFTISRDNSKNTLYLQMNSLRAEDTAVYYCARALTYYDYEFAYWGQGTTVTVSSGGGGSGGGGSGGGGSDIQLTQSPSFLSASVGDRVTITCRASQSIGTNIHWYQQKPGKAPKLLIKYASESISGVPSRFSGSGSGTEFTLTISSLQPEDFATYYCQQNNNWPTTFGAGTKLEIKRAAAGGSGGDFTPPTVKILQSSCDGGGHFPPTIQLLCLVSGYTPGTINITWLEDGQVMDVDLSTASTTQEGELASTQSELTLSQKHWLSDRTYTCQVTYQGHTFEDSTKKCADSNGGSGGASSGGGPQRVAAHITGTRGRSNTLSSPNSKNEKALGRKINSWESSRSGHSFLSNLHLRNGELVIHEKGFYYIYSQTYFRFQEEIKENTKNDKQMVQYIYKYTSYPDPILLMKSARNSCWSKDAEYGLYSIYQGGIFELKENDRIFVSVTNEHLIDMDHEASFFGAFLVGGGPQRVAAHITGTRGRSNTLSSPNSKNEKALGRKINSWESSRSGHSFLSNLHLRNGELVIHEKGFYYIYSQTYFRFQEEIKENTKNDKQMVQYIYKYTSYPDPILLMKSARNSCWSKDAEYGLYSIYQGGIFELKENDRIFVSVTNEHLIDMDHEASFFGAFLVGGGPQRVAAHITGTRGRSNTLSSPNSKNEKALGRKINSWESSRSGHSFLSNLHLRNGELVIHEKGFYYIYSQTYFRFQEEIKENTKNDKQMVQYIYKYTSYPDPILLMKSARNSCWSKDAEYGLYSIYQGGIFELKENDRIFVSVTNEHLIDMDHEASFFGAFLVG
B2: scFv3M6-Fc-scTRAIL3-… (HER3 arm) (antibody, V domains shown)
VH: EVQLLESGGGLVQPGGSLRLSCAASGFTFSHYVMAWVRQAPGKGLEWVSSISSSGGWTLYADSVKGRFTISRDNSKNTLYLQMNSLRAEDTAVYYCTRGLKMATIFDYWGQGTLVTVSS
VL: QSALTQPASVSGSPGQSITISCTGTSSDVGSYNVVSWYQQHPGKAPKLIIYEVSQRPSGVSNRFSGSKSGNTASLTISGLQTEDEADYYCSSYAGSSIFVIFGGGTKVTVL
B3: Db3M6-scTRAIL3-… (HER3 arm) (antibody, V domains shown)
VH: EVQLLESGGGLVQPGGSLRLSCAASGFTFSHYVMAWVRQAPGKGLEWVSSISSSGGWTLYADSVKGRFTISRDNSKNTLYLQMNSLRAEDTAVYYCTRGLKMATIFDYWGQGTLVTVSS
VL: QSALTQPASVSGSPGQSITISCTGTSSDVGSYNVVSWYQQHPGKAPKLIIYEVSQRPSGVSNRFSGSKSGNTASLTISGLQTEDEADYYCSSYAGSSIFVIFGGGTKVTVL
B4: EHD2-scTRAIL3-FLVGGGPQRVA (designed binder)
chain 1: DFTPPTVKILQSSCDGGGHFPPTIQLLCLVSGYTPGTINITWLEDGQVMDVDLSTASTTQEGELASTQSELTLSQKHWLSDRTYTCQVTYQGHTFEDSTKKCADSN
chain 2: MDWTWRVFCLLAVAPGAHSLDDYKDDDDKEFGGGPQRVAAHITGTRGRSNTLSSPNSKNEKALGRKINSWESSRSGHSFLSNLHLRNGELVIHEKGFYYIYSQTYFRFQEEIKENTKNDKQMVQYIYKYTSYPDPILLMKSARNSCWSKDAEYGLYSIYQGGIFELKENDRIFVSVTNEHLIDMDHEASFFGAFLVGGGPQRVAAHITGTRGRSNTLSSPNSKNEKALGRKINSWESSRSGHSFLSNLHLRNGELVIHEKGFYYIYSQTYFRFQEEIKENTKNDKQMVQYIYKYTSYPDPILLMKSARNSCWSKDAEYGLYSIYQGGIFELKENDRIFVSVTNEHLIDMDHEASFFGAFLVGGGPQRVAAHITGTRGRSNTLSSPNSKNEKALGRKINSWESSRSGHSFLSNLHLRNGELVIHEKGFYYIYSQTYFRFQEEIKENTKNDKQMVQYIYKYTSYPDPILLMKSARNSCWSKDAEYGLYSIYQGGIFELKENDRIFVSVTNEHLIDMDHEASFFGAFLV
B5: scTRAIL3-FLVGGGPQRVA (designed binder)
chain: MDWTWRVFCLLAVAPGAHSLDDYKDDDDKEFGGGPQRVAAHITGTRGRSNTLSSPNSKNEKALGRKINSWESSRSGHSFLSNLHLRNGELVIHEKGFYYIYSQTYFRFQEEIKENTKNDKQMVQYIYKYTSYPDPILLMKSARNSCWSKDAEYGLYSIYQGGIFELKENDRIFVSVTNEHLIDMDHEASFFGAFLVGGGPQRVAAHITGTRGRSNTLSSPNSKNEKALGRKINSWESSRSGHSFLSNLHLRNGELVIHEKGFYYIYSQTYFRFQEEIKENTKNDKQMVQYIYKYTSYPDPILLMKSARNSCWSKDAEYGLYSIYQGGIFELKENDRIFVSVTNEHLIDMDHEASFFGAFLVGGGPQRVAAHITGTRGRSNTLSSPNSKNEKALGRKINSWESSRSGHSFLSNLHLRNGELVIHEKGFYYIYSQTYFRFQEEIKENTKNDKQMVQYIYKYTSYPDPILLMKSARNSCWSKDAEYGLYSIYQGGIFELKENDRIFVSVTNEHLIDMDHEASFFGAFLV
B6: scFv3M6-EHD2-scTRAIL3-… (HER3 arm) (antibody)
chain: EVQLLESGGGLVQPGGSLRLSCAASGFTFSHYVMAWVRQAPGKGLEWVSSISSSGGWTLYADSVKGRFTISRDNSKNTLYLQMNSLRAEDTAVYYCTRGLKMATIFDYWGQGTLVTVSSGGGGSGGGGSGGGGSQSALTQPASVSGSPGQSITISCTGTSSDVGSYNVVSWYQQHPGKAPKLIIYEVSQRPSGVSNRFSGSKSGNTASLTISGLQTEDEADYYCSSYAGSSIFVIFGGGTKVTVLAAAGGSGGDFTPPTVKILQSSCDGGGHFPPTIQLLCLVSGYTPGTINITWLEDGQVMDVDLSTASTTQEGELASTQSELTLSQKHWLSDRTYTCQVTYQGHTFEDSTKKCADSN
B7: dsDb3M6-scTRAIL3-FLVGGGPQRVA (antibody)
chain: DYKDDDDKGGGGSGTEVQLLESGGGLVQPGGSLRLSCAASGFTFSHYVMAWVRQAPGKCLEWVSSISSSGGWTLYADSVKGRFTISRDNSKNTLYLQMNSLRAEDTAVYYCTRGLKMATIFDYWGQGTLVTVSSGGGGSQSALTQPASVSGSPGQSITISCTGTSSDVGSYNVVSWYQQHPGKAPKLIIYEVSQRPSGVSNRFSGSKSGNTASLTISGLQTEDEADYYCSSYAGSSIFVIFGCGTKVTVLAAAGGSGGGPQRVAAHITGTRGRSNTLSSPNSKNEKALGRKINSWESSRSGHSFLSNLHLRNGELVIHEKGFYYIYSQTYFRFQEEIKENTKNDKQMVQYIYKYTSYPDPILLMKSARNSCWSKDAEYGLYSIYQGGIFELKENDRIFVSVTNEHLIDMDHEASFFGAFLVGGGPQRVAAHITGTRGRSNTLSSPNSKNEKALGRKINSWESSRSGHSFLSNLHLRNGELVIHEKGFYYIYSQTYFRFQEEIKENTKNDKQMVQYIYKYTSYPDPILLMKSARNSCWSKDAEYGLYSIYQGGIFELKENDRIFVSVTNEHLIDMDHEASFFGAFLVGGGPQRVAAHITGTRGRSNTLSSPNSKNEKALGRKINSWESSRSGHSFLSNLHLRNGELVIHEKGFYYIYSQTYFRFQEEIKENTKNDKQMVQYIYKYTSYPDPILLMKSARNSCWSKDAEYGLYSIYQGGIFELKENDRIFVSVTNEHLIDMDHEASFFGAFLVG
B8: Dbhu225-scTRAIL3-FLVGGGPQRVA (antibody)
chain: DYKDDDDKGGGGSGTEVQLVESGGGLVQPGGSLRLSCAASGFSLTNYGVHWVRQAPGKGLEWLGVIWSGGNTDYNTPFTSRFTISRDNSKNTLYLQMNSLRAEDTAVYYCARALTYYDYEFAYWGQGTTVTVSSGGGGSDIQLTQSPSFLSASVGDRVTITCRASQSIGTNIHWYQQKPGKAPKLLIKYASESISGVPSRFSGSGSGTEFTLTISSLQPEDFATYYCQQNNNWPTTFGAGTKLEIKRAAAGGSGGGPQRVAAHITGTRGRSNTLSSPNSKNEKALGRKINSWESSRSGHSFLSNLHLRNGELVIHEKGFYYIYSQTYFRFQEEIKENTKNDKQMVQYIYKYTSYPDPILLMKSARNSCWSKDAEYGLYSIYQGGIFELKENDRIFVSVTNEHLIDMDHEASFFGAFLVGGGPQRVAAHITGTRGRSNTLSSPNSKNEKALGRKINSWESSRSGHSFLSNLHLRNGELVIHEKGFYYIYSQTYFRFQEEIKENTKNDKQMVQYIYKYTSYPDPILLMKSARNSCWSKDAEYGLYSIYQGGIFELKENDRIFVSVTNEHLIDMDHEASFFGAFLVGGGPQRVAAHITGTRGRSNTLSSPNSKNEKALGRKINSWESSRSGHSFLSNLHLRNGELVIHEKGFYYIYSQTYFRFQEEIKENTKNDKQMVQYIYKYTSYPDPILLMKSARNSCWSKDAEYGLYSIYQGGIFELKENDRIFVSVTNEHLIDMDHEASFFGAFLVG
B9: dsDbhu225-scTRAIL3-FLVGGGPQRVA (antibody)
chain: DYKDDDDKGGGGSGTEVQLVESGGGLVQPGGSLRLSCAASGFSLTNYGVHWVRQAPGKCLEWLGVIWSGGNTDYNTPFTSRFTISRDNSKNTLYLQMNSLRAEDTAVYYCARALTYYDYEFAYWGQGTTVTVSSGGGGSDIQLTQSPSFLSASVGDRVTITCRASQSIGTNIHWYQQKPGKAPKLLIKYASESISGVPSRFSGSGSGTEFTLTISSLQPEDFATYYCQQNNNWPTTFGCGTKLEIKRAAAGGSGGGPQRVAAHITGTRGRSNTLSSPNSKNEKALGRKINSWESSRSGHSFLSNLHLRNGELVIHEKGFYYIYSQTYFRFQEEIKENTKNDKQMVQYIYKYTSYPDPILLMKSARNSCWSKDAEYGLYSIYQGGIFELKENDRIFVSVTNEHLIDMDHEASFFGAFLVGGGPQRVAAHITGTRGRSNTLSSPNSKNEKALGRKINSWESSRSGHSFLSNLHLRNGELVIHEKGFYYIYSQTYFRFQEEIKENTKNDKQMVQYIYKYTSYPDPILLMKSARNSCWSKDAEYGLYSIYQGGIFELKENDRIFVSVTNEHLIDMDHEASFFGAFLVGGGPQRVAAHITGTRGRSNTLSSPNSKNEKALGRKINSWESSRSGHSFLSNLHLRNGELVIHEKGFYYIYSQTYFRFQEEIKENTKNDKQMVQYIYKYTSYPDPILLMKSARNSCWSKDAEYGLYSIYQGGIFELKENDRIFVSVTNEHLIDMDHEASFFGAFLVG

Key:
EGFR [1] = target: T1, EGFR (human, UniProt P00533); test: FACS, Colo205 cells
EGFR [2] = target: T1, EGFR; test: ELISA
TRAIL-R2 (DR5) [3] = target: T2, TRAIL-R2 (DR5) (human, UniProt O14763); test: ELISA
HER3 [4] = target: T3, HER3 (human, UniProt P21860); test: FACS, Colo205 cells
HER3 [5] = target: T3, HER3; test: ELISA
TRAIL-R2 (DR5) [6] = target: T2, TRAIL-R2 (DR5); test: FACS, Colo205 cells

| Binder | EC50 (EGFR [1]) | EC50 (EGFR [2]) | EC50 (TRAIL-R2 (DR5) [3]) | EC50 (HER3 [4]) | EC50 (HER3 [5]) | EC50 (TRAIL-R2 (DR5) [6]) |
| --- | --- | --- | --- | --- | --- | --- |
| B1 | 0.58 nM | 1.25 nM | 1.82 nM |  |  |  |
| B2 |  |  |  | 13.1 nM |  |  |
| B3 |  |  |  | 10.4 nM | 5.88 nM |  |
| B4 |  |  | 1.94 nM |  |  | > 100 nM |
| B5 |  |  | 1.74 nM |  |  | 5.67 nM |
| B6 |  |  |  | 19.9 nM | 11.6 nM |  |
| B7 |  |  | 2.83 nM | 32.5 nM | 8.54 nM |  |
| B8 | 0.87 nM | 0.77 nM | 0.79 nM |  |  |  |
| B9 | 0.86 nM | 0.98 nM | 1.29 nM |  |  |  |
